# Literature values in article PMC10357296.
# Molecular target: IL-18 (Homo sapiens) (UniProt Q14116)
# Sequence (Q14116 37-193): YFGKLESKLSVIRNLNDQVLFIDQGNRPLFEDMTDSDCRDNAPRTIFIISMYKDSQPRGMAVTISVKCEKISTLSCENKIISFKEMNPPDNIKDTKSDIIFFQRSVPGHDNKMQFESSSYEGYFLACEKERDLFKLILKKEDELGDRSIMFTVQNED
# IL-18BP, sequence (O95998 31-194): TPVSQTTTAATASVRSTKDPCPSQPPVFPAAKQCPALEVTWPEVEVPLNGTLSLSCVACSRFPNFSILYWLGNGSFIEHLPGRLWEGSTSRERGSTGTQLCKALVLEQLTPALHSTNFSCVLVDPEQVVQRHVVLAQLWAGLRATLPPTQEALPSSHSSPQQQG
substance,measurement,value
IL-18BP (from UniProt O95998),Kd,< 1 nM
